Laboratory results published in publication PMC8383118.

Key:
[1] = molecular target: fluorescently labeled S. mutans XIP (dansyl-GLDWWSL) (Streptococcus mutans); experiment: other fluorescence titration; 0.2 μM dansyl-XIP with increasing ComR, 1 h, room temperature, dark; 20 mM HEPES pH 7.5, 100 mM NaCl, 1 mM β-ME; dansyl emission intensity
[2] = molecular target: ComR S. mutans, full length (Streptococcus mutans); experiment: ITC; 300 μM Prx (or PrxD32A) injected into 20 μM ComR S. mutans or DBD, 25 °C, gel filtration buffer (20 mM Tris-HCl pH 7.5, 100 mM NaCl, 1 mM β-ME); one site model
[3] = molecular target: ComR S. mutans DNA-binding domain (DBD) construct (Streptococcus mutans); experiment: as above
[4] = molecular target: ComR:dansyl-XIP complex (Streptococcus mutans); experiment: fluorescence polarisation; steady-state fluorescence anisotropy of 0.2 μM dansyl-XIP with 0.5 μM ComR and increasing Prx, 1 h, room temperature; 20 mM HEPES pH 7.5, 100 mM NaCl, 1 mM β-ME
[5] = molecular target: ComR S. mutans, full length (Streptococcus mutans)

Row | Molecule | Kd [1] [nM] | Kd [2] [nM] | dH [2] [kcal/mol] | stoichiometry N [2] | Kd [3] [nM] | dH [3] [kcal/mol] | stoichiometry N [3] | Kd [4] [nM] | EMSA: Prx needed for complete inhibition (no DNA band shift) of 4 μM ComR with 8 μM XIP and FAM-labeled comS promoter probe; Prx added with or before XIP (apo-ComR) [5] [µM] | EMSA: Prx needed for complete inhibition (no DNA band shift) when added after the ComR:XIP:DNA complex was allowed to form (activated ComR) [5] [µM]
1 | ComR S. mutans, full length (receptor) | 320 | – | – | – | – | – | – | – | – | –
2 | paratox (Prx) from S. pyogenes MGAS315 (natural protein) MLTYDEFKQAIDRGYITADTVMIVRKNGQIFDYVLPNEKIKNGEIVTDEKVEEVLVELSR | – | 390 | -11.8 | 1 | 50 | -20.8 | 1 | 700 | 6 | 2
